According to IntAct's records for PubMed 25910212:

What was measured:
cap2_human CAP2 [1] = biological target: cap2_human CAP2 (UniProt P40123)
cof2_human CFL2 = cof2_human CFL2 (UniProt Q9Y281)
cap2_human CAP2 [2] = biological target: cap2_human CAP2 (UniProt P40123); remark: listed apart in the source
tfcp2_human TFCP2 = tfcp2_human TFCP2 (UniProt Q12800)
mdfi_human MDFI = mdfi_human MDFI (UniProt Q99750)
trip6_human TRIP6 = trip6_human TRIP6 (UniProt Q15654)
kra32_human KRTAP3-2 = kra32_human KRTAP3-2 (UniProt Q9BYR7)
lzts2_human LZTS2 = lzts2_human LZTS2 (UniProt Q9BRK4)
kxdl1_human KXD1 = kxdl1_human KXD1 (UniProt Q9BQD3)
ifit3_human IFIT3 [3] = biological target: ifit3_human IFIT3 (UniProt O14879)
ifit3_human IFIT3 [4] = biological target: ifit3_human IFIT3 (UniProt O14879); remark: listed apart in the source
md1l1_human MAD1L1 = md1l1_human MAD1L1 (UniProt Q9Y6D9)
goga2_human GOLGA2 = goga2_human GOLGA2 (UniProt Q08379)
tfpt_human TFPT = tfpt_human TFPT (UniProt P0C1Z6)
syce1_human SYCE1 = syce1_human SYCE1 (UniProt Q8N0S2)
efhc2_human EFHC2 = biological target: T1, efhc2_human EFHC2 (UniProt Q5JST6)
T1 sequence: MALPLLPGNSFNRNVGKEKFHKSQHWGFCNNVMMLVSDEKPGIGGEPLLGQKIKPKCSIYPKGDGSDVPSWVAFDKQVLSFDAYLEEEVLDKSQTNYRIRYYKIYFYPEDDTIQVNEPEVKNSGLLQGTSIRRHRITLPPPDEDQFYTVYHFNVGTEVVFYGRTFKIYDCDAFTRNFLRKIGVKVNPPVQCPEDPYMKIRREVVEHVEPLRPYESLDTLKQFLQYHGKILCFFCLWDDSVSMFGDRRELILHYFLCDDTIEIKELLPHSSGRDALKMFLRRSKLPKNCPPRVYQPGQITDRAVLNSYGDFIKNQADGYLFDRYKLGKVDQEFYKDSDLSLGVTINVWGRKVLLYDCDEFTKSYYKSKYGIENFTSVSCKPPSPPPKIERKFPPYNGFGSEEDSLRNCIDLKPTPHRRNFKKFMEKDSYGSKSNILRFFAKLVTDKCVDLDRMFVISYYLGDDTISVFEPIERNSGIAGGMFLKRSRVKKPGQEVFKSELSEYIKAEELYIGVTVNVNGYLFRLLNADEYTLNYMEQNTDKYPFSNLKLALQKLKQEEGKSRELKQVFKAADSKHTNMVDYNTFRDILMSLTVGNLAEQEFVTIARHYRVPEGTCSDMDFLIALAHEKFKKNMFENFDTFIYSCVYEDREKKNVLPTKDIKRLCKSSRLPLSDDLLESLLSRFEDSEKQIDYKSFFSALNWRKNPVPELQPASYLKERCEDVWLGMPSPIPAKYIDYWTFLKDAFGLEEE

Erythroid transcription factor (Homo sapiens), P15976-2 V205M, sequence (P15976 other isoform, or with tags, fused parts or gaps V205M): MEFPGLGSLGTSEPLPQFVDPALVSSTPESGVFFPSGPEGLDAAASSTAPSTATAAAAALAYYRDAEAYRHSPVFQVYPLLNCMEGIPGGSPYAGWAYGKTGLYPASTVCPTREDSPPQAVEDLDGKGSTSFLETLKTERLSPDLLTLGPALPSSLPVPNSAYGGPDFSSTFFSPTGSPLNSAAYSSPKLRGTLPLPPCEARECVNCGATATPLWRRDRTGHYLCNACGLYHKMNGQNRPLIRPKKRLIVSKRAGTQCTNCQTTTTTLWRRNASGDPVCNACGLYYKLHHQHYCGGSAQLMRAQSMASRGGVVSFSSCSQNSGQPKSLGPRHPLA
Tropomyosin alpha-1 chain (Homo sapiens), P09493-10 E40K, sequence (P09493 other isoform, or with tags, fused parts or gaps E40K): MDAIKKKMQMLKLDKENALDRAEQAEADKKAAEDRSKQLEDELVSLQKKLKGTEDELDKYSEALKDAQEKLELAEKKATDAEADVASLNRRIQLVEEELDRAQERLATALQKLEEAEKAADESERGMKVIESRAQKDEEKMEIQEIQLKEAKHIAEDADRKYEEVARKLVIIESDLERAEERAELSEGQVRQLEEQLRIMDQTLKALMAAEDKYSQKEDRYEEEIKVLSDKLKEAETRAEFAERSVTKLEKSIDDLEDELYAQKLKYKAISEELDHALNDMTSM
ifit3_human IFIT3, sequence (O14879 whole entry): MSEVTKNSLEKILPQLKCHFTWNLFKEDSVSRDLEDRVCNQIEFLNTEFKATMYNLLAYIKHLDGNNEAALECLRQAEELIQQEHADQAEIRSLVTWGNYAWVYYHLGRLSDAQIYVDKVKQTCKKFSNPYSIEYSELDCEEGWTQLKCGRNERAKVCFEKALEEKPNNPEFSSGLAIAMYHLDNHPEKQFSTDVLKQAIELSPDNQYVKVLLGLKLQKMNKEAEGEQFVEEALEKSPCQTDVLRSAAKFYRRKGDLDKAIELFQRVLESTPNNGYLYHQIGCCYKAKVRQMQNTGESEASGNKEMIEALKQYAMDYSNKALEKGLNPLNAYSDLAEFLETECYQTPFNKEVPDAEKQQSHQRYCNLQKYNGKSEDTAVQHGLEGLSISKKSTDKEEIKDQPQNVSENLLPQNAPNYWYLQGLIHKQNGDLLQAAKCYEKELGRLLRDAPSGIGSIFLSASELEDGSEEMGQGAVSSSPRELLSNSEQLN
tfcp2_human TFCP2, sequence (Q12800 whole entry): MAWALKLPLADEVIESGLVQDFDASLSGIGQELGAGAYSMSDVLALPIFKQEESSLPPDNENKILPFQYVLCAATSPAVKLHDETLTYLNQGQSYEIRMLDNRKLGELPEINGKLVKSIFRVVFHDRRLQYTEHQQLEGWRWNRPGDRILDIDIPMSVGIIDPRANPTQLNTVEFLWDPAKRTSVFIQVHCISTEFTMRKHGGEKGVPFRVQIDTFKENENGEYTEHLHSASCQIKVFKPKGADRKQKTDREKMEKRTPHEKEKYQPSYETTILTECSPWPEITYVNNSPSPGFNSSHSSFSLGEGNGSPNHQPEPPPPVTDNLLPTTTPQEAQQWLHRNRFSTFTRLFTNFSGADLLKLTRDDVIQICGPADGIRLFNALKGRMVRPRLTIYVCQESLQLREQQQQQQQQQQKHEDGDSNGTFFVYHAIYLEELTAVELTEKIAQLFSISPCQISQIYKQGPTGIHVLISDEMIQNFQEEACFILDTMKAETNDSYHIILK
Carbonic anhydrase 1 (Homo sapiens), P00915 H68R, sequence (P00915 whole entry H68R): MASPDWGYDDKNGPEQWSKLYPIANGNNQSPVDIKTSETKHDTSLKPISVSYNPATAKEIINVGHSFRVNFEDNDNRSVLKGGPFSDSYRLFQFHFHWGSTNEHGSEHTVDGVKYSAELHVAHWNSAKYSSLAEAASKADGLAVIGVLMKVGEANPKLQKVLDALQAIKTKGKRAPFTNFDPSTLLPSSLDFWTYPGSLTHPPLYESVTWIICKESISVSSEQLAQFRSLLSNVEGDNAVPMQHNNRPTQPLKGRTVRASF
mdfi_human MDFI, sequence (Q99750 whole entry): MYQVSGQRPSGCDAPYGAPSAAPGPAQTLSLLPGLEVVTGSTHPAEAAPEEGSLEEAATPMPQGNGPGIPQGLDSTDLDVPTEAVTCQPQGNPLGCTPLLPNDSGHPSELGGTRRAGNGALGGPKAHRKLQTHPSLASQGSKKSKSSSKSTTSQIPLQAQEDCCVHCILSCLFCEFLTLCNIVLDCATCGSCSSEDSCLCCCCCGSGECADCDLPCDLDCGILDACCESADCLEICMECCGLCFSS
goga2_human GOLGA2, sequence (Q08379 whole entry): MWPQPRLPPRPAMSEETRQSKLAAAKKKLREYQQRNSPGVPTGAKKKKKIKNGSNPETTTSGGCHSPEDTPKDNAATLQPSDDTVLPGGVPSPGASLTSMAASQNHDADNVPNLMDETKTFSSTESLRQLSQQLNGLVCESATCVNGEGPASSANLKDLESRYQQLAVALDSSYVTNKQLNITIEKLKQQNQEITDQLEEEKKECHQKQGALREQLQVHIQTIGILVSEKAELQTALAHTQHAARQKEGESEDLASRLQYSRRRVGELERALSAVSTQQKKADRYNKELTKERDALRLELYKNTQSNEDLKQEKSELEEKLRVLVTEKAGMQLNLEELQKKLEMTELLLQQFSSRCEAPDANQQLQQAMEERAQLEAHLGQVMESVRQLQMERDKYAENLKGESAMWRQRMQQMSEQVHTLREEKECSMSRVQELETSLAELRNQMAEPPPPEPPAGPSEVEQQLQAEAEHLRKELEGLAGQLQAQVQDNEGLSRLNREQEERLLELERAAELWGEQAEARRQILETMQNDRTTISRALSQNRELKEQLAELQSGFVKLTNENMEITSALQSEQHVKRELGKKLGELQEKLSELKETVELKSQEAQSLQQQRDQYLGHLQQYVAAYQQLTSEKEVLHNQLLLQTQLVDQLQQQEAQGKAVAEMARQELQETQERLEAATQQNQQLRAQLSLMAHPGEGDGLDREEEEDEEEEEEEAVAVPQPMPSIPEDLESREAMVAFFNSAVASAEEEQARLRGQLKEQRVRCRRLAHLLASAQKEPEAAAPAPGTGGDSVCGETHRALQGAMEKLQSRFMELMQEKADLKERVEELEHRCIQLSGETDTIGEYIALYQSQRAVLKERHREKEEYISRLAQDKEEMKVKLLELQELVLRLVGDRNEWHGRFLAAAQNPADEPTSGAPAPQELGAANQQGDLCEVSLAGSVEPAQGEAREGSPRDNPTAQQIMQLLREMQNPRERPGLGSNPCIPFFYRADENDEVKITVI
kra32_human KRTAP3-2, sequence (Q9BYR7 whole entry): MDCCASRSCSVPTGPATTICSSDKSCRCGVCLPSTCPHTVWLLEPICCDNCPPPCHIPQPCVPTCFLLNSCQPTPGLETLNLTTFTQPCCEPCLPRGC
md1l1_human MAD1L1, sequence (Q9Y6D9 whole entry): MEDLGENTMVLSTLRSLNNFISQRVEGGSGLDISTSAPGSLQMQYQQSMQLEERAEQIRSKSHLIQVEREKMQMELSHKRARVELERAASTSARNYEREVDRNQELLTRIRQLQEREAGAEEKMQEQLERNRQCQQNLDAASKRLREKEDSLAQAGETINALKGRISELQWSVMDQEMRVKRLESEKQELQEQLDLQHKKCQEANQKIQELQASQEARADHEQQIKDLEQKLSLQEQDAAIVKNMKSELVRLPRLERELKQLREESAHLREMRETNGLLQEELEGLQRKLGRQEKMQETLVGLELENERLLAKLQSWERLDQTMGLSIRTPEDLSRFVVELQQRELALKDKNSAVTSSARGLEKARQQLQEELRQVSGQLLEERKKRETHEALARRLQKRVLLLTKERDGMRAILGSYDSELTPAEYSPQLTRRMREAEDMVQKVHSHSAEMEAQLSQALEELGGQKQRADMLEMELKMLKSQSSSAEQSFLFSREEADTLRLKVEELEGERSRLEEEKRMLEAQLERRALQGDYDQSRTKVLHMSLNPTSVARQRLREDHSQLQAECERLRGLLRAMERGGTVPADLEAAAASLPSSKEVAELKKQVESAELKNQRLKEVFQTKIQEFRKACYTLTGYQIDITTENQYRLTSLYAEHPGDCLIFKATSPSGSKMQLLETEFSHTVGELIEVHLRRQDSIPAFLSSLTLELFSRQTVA
CAGE1, Q8TC20-4, sequence (Q8TC20 other isoform, or with tags, fused parts or gaps): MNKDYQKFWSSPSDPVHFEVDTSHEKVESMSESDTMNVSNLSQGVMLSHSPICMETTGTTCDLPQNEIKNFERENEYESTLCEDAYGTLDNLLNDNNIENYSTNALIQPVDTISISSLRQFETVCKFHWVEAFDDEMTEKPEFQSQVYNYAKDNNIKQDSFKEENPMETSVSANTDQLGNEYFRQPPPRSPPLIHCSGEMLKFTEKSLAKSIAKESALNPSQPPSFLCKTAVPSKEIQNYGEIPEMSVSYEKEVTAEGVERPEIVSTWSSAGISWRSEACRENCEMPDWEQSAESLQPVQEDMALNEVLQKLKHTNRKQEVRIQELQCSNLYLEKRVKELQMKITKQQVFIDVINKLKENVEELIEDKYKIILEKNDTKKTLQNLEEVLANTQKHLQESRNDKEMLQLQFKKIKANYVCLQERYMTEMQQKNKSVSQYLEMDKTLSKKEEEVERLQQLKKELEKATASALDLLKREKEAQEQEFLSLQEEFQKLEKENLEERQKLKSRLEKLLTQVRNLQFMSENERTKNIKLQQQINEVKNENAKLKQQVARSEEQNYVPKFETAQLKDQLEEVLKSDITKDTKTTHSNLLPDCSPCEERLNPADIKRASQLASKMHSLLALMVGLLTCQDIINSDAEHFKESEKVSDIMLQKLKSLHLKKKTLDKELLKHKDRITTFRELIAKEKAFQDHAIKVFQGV
kxdl1_human KXD1, sequence (Q9BQD3 whole entry): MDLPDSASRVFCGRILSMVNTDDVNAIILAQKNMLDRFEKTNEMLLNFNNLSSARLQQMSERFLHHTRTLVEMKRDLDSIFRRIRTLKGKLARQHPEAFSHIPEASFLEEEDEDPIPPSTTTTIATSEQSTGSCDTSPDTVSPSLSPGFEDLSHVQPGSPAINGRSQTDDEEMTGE

Actin, cytoplasmic 2 (Homo sapiens) (from UniProt P63261) P264L
effect of a mutation on the interaction (cap2_human CAP2 [1]): with no effect | effect of a mutation on the interaction (cof2_human CFL2): disrupting interaction strength | effect of a mutation on the interaction (cap2_human CAP2 [2]): causing an interaction

Actin, cytoplasmic 2 (Homo sapiens) (from UniProt P63261) T89I
effect of a mutation on the interaction (cap2_human CAP2 [1]): with no effect | effect of a mutation on the interaction (cof2_human CFL2): with no effect | effect of a mutation on the interaction (cap2_human CAP2 [2]): causing an interaction

Carbonic anhydrase 1 (Homo sapiens), P00915 H68R
effect of a mutation on the interaction (tfcp2_human TFCP2): with no effect

Carbonic anhydrase 1 (Homo sapiens), P00915 R247H
effect of a mutation on the interaction (tfcp2_human TFCP2): with no effect

Erythroid transcription factor (Homo sapiens), P15976-2 V205M
effect of a mutation on the interaction (mdfi_human MDFI): with no effect | effect of a mutation on the interaction (trip6_human TRIP6): with no effect | effect of a mutation on the interaction (kra32_human KRTAP3-2): with no effect | effect of a mutation on the interaction (lzts2_human LZTS2): disrupting interaction strength

Tropomyosin alpha-1 chain (Homo sapiens), P09493-10 E40K
effect of a mutation on the interaction (kxdl1_human KXD1): with no effect | effect of a mutation on the interaction (ifit3_human IFIT3 [3]): with no effect | effect of a mutation on the interaction (TNNT1, P13805-3): with no effect | effect of a mutation on the interaction (ifit3_human IFIT3 [4]): causing an interaction | effect of a mutation on the interaction (CAGE1, Q8TC20-4): with no effect | effect of a mutation on the interaction (md1l1_human MAD1L1): with no effect | effect of a mutation on the interaction (goga2_human GOLGA2): disrupting interaction strength | effect of a mutation on the interaction (tfpt_human TFPT): with no effect | effect of a mutation on the interaction (syce1_human SYCE1): with no effect

Voltage-dependent L-type calcium channel subunit beta-4 (Homo sapiens) (from UniProt O00305) C104F
effect of a mutation on the interaction (efhc2_human EFHC2): with no effect

Voltage-dependent L-type calcium channel subunit beta-4 (Homo sapiens) (from UniProt O00305) R468Q
effect of a mutation on the interaction (efhc2_human EFHC2): with no effect
